B1: library; numbered along this chain (parent)
chain: MAAAAAAAAEQQSSNGPVKKSMREKAVERRSVNKEHNSNFKAGYIPIDEDRLHKTGLRGRKGNLAICVIILLFILAVINLIITLVIWAVIRIGPNGCDSMEFHESGLLRFKQVSDMGVIHPLYKSTVGGRRNENLVITGNNQPIVFQQGTTKLSVENNKTSITSDIGMQFFDPRTQNILFSTDYETHEFHLPSGVKSLNVQKASTERITSNATSDLNIKVDGRAIVRGNEGVFIMGKTIEFHMGGNMELKAENSIILNGSVMVSTTRLPSSSSGDQLGSGDWVRYKLCMCADGTLFKVQVTSQNMGCQISDNPCGNTH

Variants of: B1
Experiment: SGCB cell-surface expression functional score (HA stain, bin4 vs bin1, normalised to synonymous) (log10 ratio); higher = more cell-surface SGCB (functional)
Summary of the method: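 HEK293 cells stably expressing alpha-, gamma- and delta-sarcoglycan received codon-saturation libraries of HA-tagged, YFP-fused human beta-sarcoglycan by lentiviral transduction at MOI <0.1, performed in duplicate. Cells positive for YFP were sorted after 72 hours and cultured for 5–7 days, then stained on ice with Alexa Fluor 647 anti-HA and fixed. Fixed cells were sorted into four 5% intensity bins and amplicon-sequenced, and the log ratio of highest-bin to lowest-bin variant frequency, as a median over codons and transductions, gives the functional score. Per section, synonymous variants were scaled to mean 0, SD 0.5.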

SGCB cell-surface expression functional score (log10) of substitutions, site by site:
V263: K -0.87, H 0.31, R -0.48, S -0.39, A -0.4, P -1.18, M -1.03, W 0.52, I 0.77, D -0.53, F 0.35, E -0.52, T 0.4, N 0.66, Q -1.36, G -0.03, C 1, L 0.09, Y 0.3
S264: R 0.03, A 0.51, L 0.68, G 0.23, Y 0.34, C -0.1, Q 0.39, M 0.69, I 0.34, K 0.5, N -0.3, F 0.58, E 0.53, V 0.6, T 0.31, D 0.96, W -0.2, H 0.22, P 0.06
T266: A 0.63, F 0.7, V 0.35, G 1.23, E 1.22, I 0.26, M 1.39, N 0.54, L 0.47, K 1.15, R 0.23, W 0.59, Q 1.04, S 0.4, P 0.54, D 0.4, C 1.12, H 0.55, Y 0.19
L257: R -1.52, T -0.91, C -0.27, I 0.12, F 0.54, G -0.1, H -0.81, Y 0.3, K -0.27, D -0.5, V 0.45, E -0.43, W 0.82, Q -1.3, A -0.23, N -0.61, M 0, S -1.19, P -0.89
T265: L 0.73, H 0.75, R 0.4, A 0, N 0.79, Y 0.55, S 0.4, D 0, W 0.38, M 1.41, P 0.25, V 0.52, C -0.3, F 0.68, E 0.2, Q 0.21, G 0.47, I 0.58, K 0.32
R267: W -0.83, H 0.05, M -0.73, N 0, Y 0.2, K 0.76, S 0.28, F 0.59, C 0.16, G 0.49, V 0.49, A 0.63, D -0.54, E -0.053, I -0.11, L -0.05, P -0.19, Q -0.244, T -0.49
S254: T 0.67, W 0.38, Q 0.92, V 0.02, R 0.12, Y 0.7
M262: H 1.32, R 0.7, W 0.08, S 0.7, I -0.11, D -0.81, K 0.79, F 0.95, P -0.34, C 0.37, A 0.37, T 0.19, Q 0.93, G 0.53, E 0.65, V 0.78, N 0, L 0.57, Y 0.79
S271: P -0.56, T 0.3, I -0.19, A 0, R -0.24, Y -0.26, L 0.07, Q -0.08, H -0.19, N 0.21, F 0.35, V 0.17, M -0.03, G 0.33, D -0.12, W -0.22, K 0.11, C -0.06, E -0.22
I255: A 0.2, E -0.85, V 0.07, G -1.03, S -0.08, M 0.52, P -0.82, Q -0.37, F 0.37, N -1.5, K -0.13, L 0.57, D -0.53, Y -1.08, T -0.76, C 0.39, H -1.4, R -0.91, W -1.77
N258: C 0.74, Y 0.03, D 0.39, M 0.62, E 0, I -0.1, W 0, H 0.33, Q 0.63, P -1.25, L 0.61, R 0.61, V 0.3, G 0.43, K 0.55, T -0.05, A 0.1, F -0.09, S 0.66
S270: K -0.13, P 0, H 0.54, T 0.45, D 0.32, F 1.1, V 0.24, E -0.45, L 0.64, I 0.33, Q 0.47, C -0.02, A 0.44, Y 0.41, M 0.77, G 0.32, N -0.08, R 0.24
G259: Q 0.7, N -0.51, M -1.05, V 0.07, A 0.9, H 0.33, R -0.34, S 0.28, C -0.44, T 0.55, I 0.63, P -0.37, E -1.29, F -0.46, D -1.69, K -1.06, Y -1.22, W -1.53, L -0.06
L268: H 0, I 0.38, A 0.63, D 0.78, Q -0.01, Y -0.02, W 0.53, E -0.13, M 0.61, S 0.48, N 0, C -0.57, T -0.02, P -0.02, R 0.02, F 0.46, G -0.22, V 0.2, K -1.12
I256: A -0.2, S 0.62, N 1.09, C -0.43, F 0.01, Y 0.42, L 0.37, T 0.37, D 0.02, V 0.31, M 0.29, W -0.179, R 0.05, G 0.26, P -0.12, E 0.36, Q -0.26, H 0.01, K 0.15
P269: R 0.75, L 0.23, M -0.48, E 0, W 0.56, G 0.44, D -0.09, V 0, K 0.01, F 0.8, A -0.23, Y 0.73, Q 0.32, H 0.32, C 0.49, S 0.18, N 0.54, T 0.41, I 0.5
S260: I -0.71, T 0.41, C 0.5, F 0.4, D -0.04, K -0.81, G 0.77, Q -0.24, M 0.98, N 0.25, H 0.83, R 0.87, L -0.22, Y -0.87, P 0.71, V 0.01, E -0.09, A 0.52, W 0.61
S272: G 0.1, F 0.1, A 0.37, C -0.03, E 0.23, D -0.3
V261: W 0.306, H -1.2, P -0.15, G -0.18, A -0.02, F -1.31, Y -1.15, I 0.29, N -0.63, R -0.69, L 0.42, C 0.48, Q -1.12, T 0.23, M -0.12, K -1.55, E 0.05, D 0.41, S -0.04
